Experimental data published in article PMC7354924.

Key:
[1] = biological target: bone morphogenetic protein 2 (BMP2) (human) (UniProt P12643); assay: SPR; ProteOn XPR36; BMP2 (570 RU) or GDF5 (470 RU) amine-coupled to a GLC sensor chip; ActR2b ectodomain perfused at 6 µM to 187.5 nM, 100 µl/min; 0.005% (v/v) Tween 20 buffer; Kd from the dose-dependency of equilibrium binding, one-site model; apparent
[2] = biological target: bone morphogenetic protein 2 (BMP2) (human) (UniProt P12643)
[3] = biological target: growth differentiation factor 5 (GDF5), wild type (human) (UniProt P43026)
[4] = biological target: bone morphogenetic protein 2 (BMP2) (human) (UniProt P12643); assay: SPR; ProteOn XPR36; BMP2 (570 RU), GDF5 (470 RU), TGF-β2 (300 RU) or activin A (350 RU) amine-coupled to a GLC sensor chip; analyte perfused (RGMB 50 to 1.56 nM at 150 or 100 µl/min; BMPR1A 1000 to 31.25 nM at 100 µl/min); 20 mM HEPES pH 7.4, 500 mM NaCl, 3.4 mM EDTA, 0.005% (v/v) Tween 20; 25 °C; Langmuir 1:1 kinetic fit (parameters local for RGMB), Kd = koff/kon; apparent
[5] = biological target: growth differentiation factor 5 (GDF5), wild type (human) (UniProt P43026); assay: as above
[6] = biological target: GDF5 variant Arg438Ala (human) (UniProt P43026); assay: SPR; GDF5 wild type (500 RU), Arg438Ala (702 RU) or Arg438Leu (977 RU) amine-coupled to a GLC sensor chip; RGMECD proteins from FreeStyle 293 cells as analytes, six concentrations (log2 series from 40, 30, 20 or 10 nM), 100 µl/min; 20 mM HEPES pH 7.4, 500 mM NaCl, 3.4 mM EDTA, 0.005% (v/v) Tween 20; kon and koff fitted globally, Kd = koff/kon; two independent experiments; apparent
[7] = biological target: GDF5 variant Arg438Leu (human) (UniProt P43026); assay: as above
[8] = biological target: growth differentiation factor 5 (GDF5), wild type (human) (UniProt P43026); assay: as above
[9] = biological target: GDF5 variant Tyr487Lys/Gln489Asp (UniProt P43026); assay: SEC-MALS; RGMBND–GDF5(Tyr487Lys/Gln489Asp)–ActR2bECD complex, 1 mg/mL, Superdex 200 HR 10/30, 0.5 M NaCl, 20 mM Hepes pH 7.4, 21 °C
Sequence of GDF5 variant Tyr487Lys/Gln489Asp (P43026 28-501 Y487K/Q489D): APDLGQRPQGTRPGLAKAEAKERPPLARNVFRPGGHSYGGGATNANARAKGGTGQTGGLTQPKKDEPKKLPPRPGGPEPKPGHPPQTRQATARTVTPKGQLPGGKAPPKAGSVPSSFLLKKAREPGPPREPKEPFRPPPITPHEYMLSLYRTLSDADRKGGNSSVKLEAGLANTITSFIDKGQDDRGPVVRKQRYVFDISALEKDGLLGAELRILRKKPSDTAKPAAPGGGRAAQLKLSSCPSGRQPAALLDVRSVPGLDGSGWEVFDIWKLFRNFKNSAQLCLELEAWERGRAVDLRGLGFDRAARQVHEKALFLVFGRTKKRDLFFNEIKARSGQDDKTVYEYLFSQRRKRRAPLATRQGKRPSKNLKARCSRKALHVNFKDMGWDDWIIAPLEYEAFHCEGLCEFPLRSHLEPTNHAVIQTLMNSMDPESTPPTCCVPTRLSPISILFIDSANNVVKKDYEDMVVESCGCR

Sequence of GDF5 variant Arg438Ala (human) (P43026 28-501 R438A): as the sequence (P43026 28-501 Y487K/Q489D) above, with R411A, K460Y, D462Q counted along it
Sequence of GDF5 variant Arg438Leu (human) (P43026 28-501 R438L): as the sequence (P43026 28-501 Y487K/Q489D) above, with R411L, K460Y, D462Q counted along it
Sequence of growth differentiation factor 5 (GDF5), wild type (human) (P43026 28-501): as the sequence (P43026 28-501 Y487K/Q489D) above, with K460Y, D462Q counted along it
Sequence of bone morphogenetic protein 2 (BMP2) (human) (P12643 24-396): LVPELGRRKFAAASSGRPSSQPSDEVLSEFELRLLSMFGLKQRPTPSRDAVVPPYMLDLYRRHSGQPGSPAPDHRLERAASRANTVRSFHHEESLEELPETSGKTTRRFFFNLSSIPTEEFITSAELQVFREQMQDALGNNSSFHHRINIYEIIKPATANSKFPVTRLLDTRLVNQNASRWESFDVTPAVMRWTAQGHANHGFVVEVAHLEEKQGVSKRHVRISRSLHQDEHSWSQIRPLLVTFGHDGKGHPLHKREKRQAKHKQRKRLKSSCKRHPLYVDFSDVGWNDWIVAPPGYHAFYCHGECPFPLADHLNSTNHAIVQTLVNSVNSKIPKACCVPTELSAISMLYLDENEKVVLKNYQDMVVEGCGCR

Kd [6] [nM]	koff [6] [s⁻¹]	kon [6] [M⁻¹ s⁻¹]	Kd [7] [nM]	koff [7] [s⁻¹]	kon [7] [M⁻¹ s⁻¹]	Kd [8] [nM]	koff [8] [s⁻¹]	kon [8] [M⁻¹ s⁻¹]	Binder	further results
1.5	0.0015	1e+06	1.1	0.0011	1e+06	3.7	0.0016	420000	full-length extracellular domain of RGMB (Gln49-Gly412) from FreeStyle 293 cells (domain or fragment) QQPAQCRIQKCTTDFVSLTSHLNSAVDGFDSEFCKALRAYAGCTQRTSKACRGNLVYHSAVLGISDLMSQRNCSKDGPTSSTNPEVTHDPCNYHSHAGAREHRRGDQNPPSYLFCGLFGDPHLRTFKDNFQTCKVEGAWPLIDNNYLSVQVTNVPVVPGSSATATNKITIIFKAHHECTDQKVYQAVTDDLPAAFVDGTTSGGDSDAKSLRIVERESGHYVEMHARYIGTTVFVRQVGRYLTLAIRMPEDLAMSYEESQDLQLCVNGCPLSERIDDGQGQVSAILGHSLPRTSLVQAWPGYTLETANTQCHEKMPVKDIYFQSCVFDLLTTGDANFTAAAHSALEDVEALHPRKERWHIFPSSG	–
2.3	0.00026	160000	2.2	0.00041	190000	2.8	0.00064	240000	full-length extracellular domain of RGMC (Gln36-Asp400) from FreeStyle 293 cells (domain or fragment) QCKILRCNAEYVSSTLSLRGGGSSGALRGGGGGGRGGGVGSGGLCRALRSYALCTRRTARTCRGDLAFHSAVHGIEDLMIQHNCSRQGPTAPPPPRGPALPGAGSGLPAPDPCDYEGRFSRLHGRPPGFLHCASFGDPHVRSFHHHFHTCRVQGAWPLLDNDFLFVQATSSPMALGANATATRKLTIIFKNMQECIDQKVYQAEVDNLPVAFEDGSINGGDRPGGSSLSIQTANPGNHVEIQAAYIGTTIIIRQTAGQLSFSIKVAEDVAMAFSAEQDLQLCVGGCPPSQRLSRSERNRRGAITIDTARRLCKEGLPVEDAYFHSCVFDVLISGDPNFTVAAQAALEDARAFLPDLEKLHLFPSD	–

Continued, binder first:

Binder	Kd [6] [nM]	koff [6] [s⁻¹]	kon [6] [M⁻¹ s⁻¹]	Kd [7] [nM]	koff [7] [s⁻¹]	kon [7] [M⁻¹ s⁻¹]	Kd [8] [nM]	koff [8] [s⁻¹]	kon [8] [M⁻¹ s⁻¹]	further results
murine activin type-2 receptor ActR2b, soluble ectodomain (residues Gly20 to Glu127) (receptor) GRGEAETRECIYYNANWELERTNQSGLERCEGEQDKRLHCYASWRNSSGTIELVKKGCWLDDFNCYDRQECVATEENPQVYFCCCEGNFCNERFTHLPEPGGPEVTYE	–	–	–	–	–	–	–	–	–	Kd [1]: 2700 nM
soluble mature RGMB (Gln49-Gly412) produced in insect cells (domain or fragment) QQPAQCRIQKCTTDFVSLTSHLNSAVDGFDSEFCKALRAYAGCTQRTSKACRGNLVYHSAVLGISDLMSQRNCSKDGPTSSTNPEVTHDPCNYHSHAGAREHRRGDQNPPSYLFCGLFGDPHLRTFKDNFQTCKVEGAWPLIDNNYLSVQVTNVPVVPGSSATATNKITIIFKAHHECTDQKVYQAVTDDLPAAFVDGTTSGGDSDAKSLRIVERESGHYVEMHARYIGTTVFVRQVGRYLTLAIRMPEDLAMSYEESQDLQLCVNGCPLSERIDDGQGQVSAILGHSLPRTSLVQAWPGYTLETANTQCHEKMPVKDIYFQSCVFDLLTTGDANFTAAAHSALEDVEALHPRKERWHIFPSSG	–	–	–	–	–	–	–	–	–	Fig. S3C: IC50 of soluble RGMB for inhibition of BMP2 (10 nM)-induced alkaline phosphatase expression in ATDC5 cells [2]: > 1500 nM; Fig. S3C: inhibitory constant Ki of soluble RGMB (Cheng-Prusoff, from EC50 and IC50) for BMP2-induced alkaline phosphatase expression in ATDC5 cells [2]: > 500 nM; Fig. S3G: IC50 of soluble RGMB for inhibition of BMP2 (10 nM)-induced SMAD signaling (BRE-Luc reporter) in C3H10T1/2 cells [2]: 41 nM; Fig. S3D: IC50 of soluble RGMB for inhibition of GDF5 (20 nM)-induced alkaline phosphatase expression in ATDC5 cells [3]: 166 nM; Fig. S3D: inhibitory constant Ki of soluble RGMB (from EC50 and IC50) for GDF5-induced alkaline phosphatase expression in ATDC5 cells [3]: 85 nM; Fig. S3H: IC50 of soluble RGMB for inhibition of GDF5 (10 nM)-induced SMAD signaling (BRE-Luc reporter) in C3H10T1/2 cells [3]: 47 nM; koff [4]: 0.011 s⁻¹; kon [4]: 5.3e+06 M⁻¹ s⁻¹; koff [5]: 0.0025 s⁻¹; kon [5]: 1.8e+06 M⁻¹ s⁻¹
ActR2b extracellular domain (ActR2bECD) (receptor) SGRGEAETRECIYYNANWELERTNQSGLERCEGEQDKRLHCYASWRNSSGTIELVKKGCWLDDFNCYDRQECVATEENPQVYFCCCEGNFCNERFTHLPEAGGPEVTYEPPPTAPTLLT	–	–	–	–	–	–	–	–	–	stoichiometry N (ActR2b per GDF5 dimer (2:2:2 by chains)) [9]: 2
full-length extracellular domain of RGMA (Cys48-Arg423) from FreeStyle 293 cells (domain or fragment) CKILKCNSEFWSATSGSHAPASDDTPEFCAALRSYALCTRRTARTCRGDLAYHSAVHGIEDLMSQHNCSKDGPTSQPRLRTLPPAGDSQERSDSPEICHYEKSFHKHSATPNYTHCGLFGDPHLRTFTDRFQTCKVQGAWPLIDNNYLNVQVTNTPVLPGSAATATSKLTIIFKNFQECVDQKVYQAEMDELPAAFVDGSKNGGDKHGANSLKITEKVSGQHVEIQAKYIGTTIVVRQVGRYLTFAVRMPEEVVNAVEDWDSQGLYLCLRGCPLNQQIDFQAFHTNAEGTGARRLAAASPAPTAPETFPYETAVAKCKEKLPVEDLYYQACVFDLLTTGDVNFTLAAYYALEDVKMLHSNKDKLHLYERTRDLPGR	1.7	0.00045	270000	1.4	0.00042	300000	1.3	0.00052	420000	–
